From publication PMC10653093

Target: Recombinant human heterodimeric S100A8/A9 (human) (UniProt P05109)
Assay: ELISA

Sequence of UniProt P05109 (P05109 whole entry, chain 1 of 2): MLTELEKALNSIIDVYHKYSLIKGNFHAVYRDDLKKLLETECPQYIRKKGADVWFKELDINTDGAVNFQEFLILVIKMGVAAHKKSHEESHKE
Sequence of UniProt P05109 (P06702 whole entry, chain 2 of 2, further chain): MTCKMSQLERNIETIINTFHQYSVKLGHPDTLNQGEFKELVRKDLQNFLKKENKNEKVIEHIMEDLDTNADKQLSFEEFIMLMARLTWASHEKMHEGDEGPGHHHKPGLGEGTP

EC50: 0.13 µM
Substance: recombinant soluble GPIbα (His-17-Leu505) (domain or fragment)
